Laboratory results from patent US20230399384A1 (University of Texas, published 2023).
Like-named read-outs stand apart in the source and are kept apart here.

Legend:
[1] = target: T1, sCoV-RBD (Fc-tagged RBD of SARS-CoV S protein) (SARS-CoV; human, UniProt P59594 306-527); experiment: phage ELISA, scFv on phage
[2] = target: T2, SARS-CoV-2 RBD protein (Sino Biological, Cat: 40592-V08B) (SARS-CoV-2, UniProt P0DTC2 319-541)
[3] = target: S protein of SARS-CoV (SARS-CoV, UniProt P59594 14-1195); experiment: ELISA, purified IgG1 on coated S protein
[4] = target: SARS-CoV-2 S protein on live SARS-CoV-2-mNG reporter virus (SARS-CoV-2, UniProt P0DTC2 14-1273); experiment: cell-based or functional assay
[5] = target: T3, sCoV2-RBD (Fc-tagged RBD of SARS-CoV-2 S protein) (SARS-CoV-2; human, UniProt P0DTC2 319-541); experiment: ELISA titration on coated sCoV2-RBD
[6] = target: T3, sCoV2-RBD (Fc-tagged RBD of SARS-CoV-2 …); experiment: BLI (Octet) blocking of ACE2 binding to captured sCoV2-RBD
[7] = target: T2, SARS-CoV-2 RBD protein (Sino …); experiment: BLI (Octet), mAb on Protein A sensor
[8] = target: T3, sCoV2-RBD (Fc-tagged RBD of SARS-CoV-2 …)
[9] = target: T1, sCoV-RBD (Fc-tagged RBD of SARS-CoV S …); experiment: ELISA, purified IgG1 on coated RBD protein

B1: CoV2-01 (antibody, V domains shown)
VH: QVLLVQSGAEMKKPGASVKVSCKTSGYTFTNSYIHWVRQAPGQGLEWMGWINPISGGTNYAQKFQGRVTMTRDTSINTAYMELSRLRSDDTAVYYCARDRGDYDYGWGTSPFYFDYWGQGTLVTVSS
VL: DVQMTQSPSSLSASVGDRVTITCRASQSISRYLNWYQQKPGKAPKLLIYAASSLQSGVPSRFSGSGSGADFTLTISSLQPEDFATYYCQQSFSPPITFGQGTRLEIK
[1]
  binding result: no binding
[2]
  Kd: 10.8 nM
[3]
  binding result: no binding (tested: one concentration, not printed)
[4]
  NC50 (neutralisation of reporter SARS-CoV-2, Vero E6 cells): 5.2 µg/mL
[5]
  EC50: 0.83 nM
[6]
  IC50: 9.17 µg/mL
[7]
  Kd: 10.8 nM
  koff: 0.000574 s⁻¹
  kon: 53300 M⁻¹ s⁻¹
[8]
  EC50: 0.83 nM

B2: CoV2-19 (antibody, V domains shown)
VH: QVQLVQSGAEMKKPGASVKVSCKTSGYTFTNSYIHWVRQAPGQGLEWMGWINPISGGTNYAQKFQGRVTMTRDTSINTAYMELSRLRSDDTAVYYCARDRGDYDYGWGTSPFYFDYWGQGTLVTVSS
VL: AIQLTQSPSSLSASVGDRVTITCRTSHTVNSYLNWYQQEPGKAPKLLIYAASNLQSGVPSRFSGSGSGTDFSLTIHNLQPEDFATYYCQQSYRTPLTFGQGTKVDIK
[1]
  binding result: no binding
[3]
  binding result: no binding (tested: one concentration, not printed)
[5]
  EC50: 5.02 nM
[6]
  IC50: 14.5 µg/mL
[7]
  Kd: 138 nM
  koff: 0.00137 s⁻¹
  kon: 9870 M⁻¹ s⁻¹

B3: CoV2-05 (antibody, V domains shown)
VH: EVQLVESGGGVARPGGSLRLSCAASGFTFDDYGMSWVRQVPGKGLEWVAGINWNGERIGYADSVKGRFTISRDNAKNSLYLQMNSLRAEDTALYYCARPSGDYVAWYFNLWGRGTLVTVSS
VL: QAALTQPRSVSGSPGQSVTISCTGTGSDVGPYKYVSWYQQHPGKAPKLMIYDVNERPSGVPDRFSGSKSGNTASLTISGLQAEDEADYYCGSYAGNNKWVFGGGTKLTVL
[1]
  binding result: no binding
[3]
  binding result: no binding (tested: one concentration, not printed)
[5]
  EC50: 7.82 nM
[6]
  IC50: 4.18 µg/mL
[7]
  Kd: 7.16 nM
  koff: 0.000602 s⁻¹
  kon: 84100 M⁻¹ s⁻¹

B4: CoV2-09 (antibody, V domains shown)
VH: QVQLHQWGAGLLKPSETLSRTCAVYGGSFSGYYWTWIRQAPGKGLEWIGEINHGGSTRYNPSLESRVSISVDTSKKQFSLELRSVTAADTAIYYCARGYDTNWYGDGYNWFDPWDRGTLVTVSS
VL: QSALTQDPSVSVALGQTVRITCQGDSLRGSFASWYRQKPGQAPVLVIFGINNRPSGVPDRFSGSSSGNTASLTITGAQAEDEADYYCNSRESNSNRILFGGGTKVTVL
[4]
  NC50 (neutralisation of reporter SARS-CoV-2, Vero E6 cells): 0.66 µg/mL

B5: CoV2-34 (antibody, V domains shown)
VH: QVQLHQWGAGLLKPSETLSRTCAVYGGSFSGYSWTWIRQAPGKGLEWIGEVNHGGKTNYNPSLESRLSISVDTSKNQFSLELRSVTAADTAVYYCARGYDTNWYGDGYNWFDPWGQGTLVSVSS
VL: DIQMTQSPSSLSASVGDRVTITCRASQKIDNFLNWYQQKPGKAPKLLIHGASNLQGGVSSRFSGSRSGTDFTLTITNLQPEDFATYYCQQSYNTPITFGQGTRLEIK
[3]
  binding result: no binding (tested: one concentration, not printed)
[5]
  EC50: 6.67 nM
[9]
  binding result: no binding (tested: one concentration, not printed)

B6: CoV2-31 (antibody, V domains shown)
VH: QVQLQQWGAGLLKPSETLSRTCAVYGGSFSGYSWTWIRQAPGKGLEWIGEINHGGSTNYNPSLESRVSISVDTSKKQFSLELRSVTAADTAVYYCARGYDTNWYGDGYNWFDPWGQGTLVTVSS
VL: QAVVTQPLSVSVALGQTAKIPCGGNNIGRKSVHWYQQKPGQAPVLVIYRDNNRPSGIPERFSGSNSGNTATLTISRAQAGDEADYYCQVWDSNTGVFGTGTKVTVL
[3]
  binding result: no binding (tested: one concentration, not printed)
[5]
  EC50: 58.1 nM
[9]
  binding result: no binding (tested: one concentration, not printed)

B7: CoV2-16 (antibody, V domains shown)
VH: QVQLHQWGAGLLKPSETLSRTCAVYGGSFSGYYWTWIRQAPGKGLEWIGEINHGGSTRYNPSLESRVSISVDTSKKQFSLELRSVTAADTAIYYCARGYDTNWYGDGYNWFDPWDRGTLVTVSS
VL: QAVVTQPPSVSGTPGQRVTISCSGSSSSIGSNTVHWYQHLPGTAPKLLMYNNNERPSGVPARFSGSKSGTSASLVITGLQADDEAEYYCQSYDTGLSGHVFGSGTELTVL
[4]
  NC50 (neutralisation of reporter SARS-CoV-2, Vero E6 cells): 0.82 µg/mL

B8: CoV2-35 (antibody, V domains shown)
VH: QVQLHQWGAGLLKPSETLSRTCAVYGGSFSGYSWTWIRQAPGKGLEWIGEINHGGSTKYNPSLESRVTISVDTSKKQFSLELRSVTAADTAVYYCARGYDTNWYGDGYNWFDPWGQGTLVSVSS
VL: NFMLTQPASVSVAPGKTASITCGGDNIGTKSVHWYRQKPGQAPVLVIYYDSDRPSGIPERFSGSNSGNTATLTISRVEAGDEADYYCQVGDSSSHVVFGGGTKVTVL
[3]
  binding result: no binding (tested: one concentration, not printed)
[5]
  EC50: 40 nM
[9]
  binding result: no binding (tested: one concentration, not printed)

B9: CoV2-26 (antibody, V domains shown)
VH: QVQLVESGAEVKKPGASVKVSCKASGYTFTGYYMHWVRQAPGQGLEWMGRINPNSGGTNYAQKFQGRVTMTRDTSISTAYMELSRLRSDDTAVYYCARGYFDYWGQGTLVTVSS
VL: QSALTQPPSASGTPGQRVTISCSGSSSNIGSNSVNWYQQVPGTAPKLLIYANDHRPSGVPDRFSGSKSGTSASLAISGLQSEDEADYYCAAWDNSLKGVVFGGGTKVTVL
[4]
  NC50 (neutralisation of reporter SARS-CoV-2, Vero E6 cells): 0.41 µg/mL

B10: CoV2-29 (antibody, V domains shown)
VH: QVQLVESGGGLVQPGGSLRLSCAASGFTFSSYWMSWVRQAPGKGLEWVANIKQDGSEKYYVDSVKGRFTISRDNAKNSLYLQMNSLRAEDTAVYYCARMADDDFWRDLPGFYMDVWGKGTTVTVSS
VL: QAVVTQPASVSGSPGQSITISCTGTSSDVGGYNYVSWYQQHPGKAPKLMIYDVSNRPSGVSNRFSGSKSGNTASLTISGLQAEDEADYYCSSYTSSSTLVFGGGTKVTVL
[3]
  binding result: no binding (tested: one concentration, not printed)
[4]
  NC50 (neutralisation of reporter SARS-CoV-2, Vero E6 cells): 1.13 µg/mL
[5]
  EC50: 4.05 nM
[6]
  IC50: 2.25 µg/mL
[8]
  EC50: 4.04 nM
[9]
  binding result: no binding (tested: one concentration, not printed)

B11: CoV2-06 (antibody, V domains shown)
VH: QVELQESGPGLVKPSGTLSLTCAVSGGSISSNNWWTWVRQPPGKGLEWIGEIHHSGGTNYNPSLKSRVTMSVDKSKNQFSLNLYSVTAADTAVYYCTRDRAGGTYSGFDFWGQGTLVTVSS
VL: QAVVTQPASVSGSPGQSITISCTGTSSDVGGYNYVSWYQQHPGKAPKLMIYDVSNRPSGVSNRFSGSKSGNTASLTISGLQAEDEADYYCSSYTSSSTVVFGGGTKVTVL
[4]
  NC50 (neutralisation of reporter SARS-CoV-2, Vero E6 cells): 0.15 µg/mL

B12: CoV2-14 (antibody, V domains shown)
VH: EVQLQQSGPGLVKPSQTLSLTCAISGDSVSSNSAAWNWIRQSPSRGLEWLGRTYYRSKWYNDYAVSVKSRITINPDTSKNQFSLQLNSVTPEDTAVYYCAREEQQLVHDYYYYGMDVWGQGTMVTVSS
VL: QAVVTQPASVSGSPGQSITISCTGTSSDIGAYNYISWYQQHPGKAPKLIIYEVSNRPSGISYRFSGSKSGNTASLTISGLQAEDEANYYCSSYAGSISFGGGTKVTVL
[4]
  NC50 (neutralisation of reporter SARS-CoV-2, Vero E6 cells): 0.46 µg/mL

B13: CoV2-33 (antibody, V domains shown)
VH: QVQLVESGGGLVQPGRSLRLSCAASRFTFDDHAMHWVRQAPGKGLEWVSGISWNGGIIGYADSVKGRFTISRDNAKNSLYLQMNSLRAEDTALYYCAKGMGFGESNYYAMDVWGQGTMVTVSS
VL: QSALTQPASVSGSPGQSITISCTGTSSDVGGYNYVSWYQQHPGKAPKLIIYDVSNRPSGVSNRFSGSKSGNTASLTISGLQAEDEAYYYCSSYTSISNLVVFGGGTKVTVL
[3]
  binding result: no binding (tested: one concentration, not printed)
[5]
  EC50: 10.8 nM
[6]
  IC50: 5.47 µg/mL
[7]
  Kd: 168 nM
  koff: 0.00137 s⁻¹
  kon: 8180 M⁻¹ s⁻¹
[9]
  binding result: no binding (tested: one concentration, not printed)

B14: CoV2-32 (antibody, V domains shown)
VH: EVQLVESGGGLVQPGRSLRLSCAAPRFTFDDYAIHWVRQVPGKGLEWVSGSSWNSGTIGYAPSVKGRFTISRDNAKNSLFLQMNSLRVEDTALYYCAILPGDYNRVADVFDIWGQGTMVIVSS
VL: QAVVTQPPSVSGAPGQRVTISCTGSSSNIGAGYDVHWYQQLPGTAPKLLIYGNNNRPSGVPDRFSGSKSGTSASLAITGLQVEDEADYYCQSYDSSLSGYVFGTGTKVTVL
[3]
  binding result: no binding (tested: one concentration, not printed)
[5]
  EC50: 12.6 nM
[6]
  IC50: 10.4 µg/mL
[7]
  Kd: 1730 nM
  koff: 0.00158 s⁻¹
  kon: 915 M⁻¹ s⁻¹
[9]
  binding result: no binding (tested: one concentration, not printed)
